According to a protein production outcome set (Wang et al. 2014):

Assay: label from the status in PepcDB records

Sequence | protein production
MRETRPNPQEILKEINKNEKDSKRGKLKIFFGYAAGVGKTYAMLEAAHSAIAMGLDVVVGYIEPHTRPETLALLEGLELLPNLEVAYRGLVLREFNLDLALSRKPDLIIVDELAHTNVKGLRHEKRYSDIEELLDAGIDVYTTLNVQHIESLNDVVASITNIVVKERIPDRIFKNAFQIELIDVDPSVLIERLNSGKIYVKNQAKKALKNFFIRENLVALRELALRETANSVNKEVMINKNENFYHTNEHILVCLSSSPSNSKVIRTSARMAEAFHGKFTALFVETTSSRELKEGNIERLREHVKLAKDLGAKIETVYGDDVAYQVSEFSKISSVSKVIIGRTKKKRHLWSRFGIVDRLIELAPELDVYIIPDEEENVEDINKICLNKEKITIKDSLKTLGILIITIIISLFFENLGFSEANIIIVFILGVLIIAKETYGRIYGVISSLFSVLLFNFFFTEPKFTFNAYDSSYIFTFFIMLVSALITSTLTNKVKVQANKSAITAYRTNILLESSSELGRCSDLEEIILKSQEQVSRLVKKPVVVYKAKNSQIENIYNYKFKDGSELSDKYINLDEQGVVLWVINNRKYAGKGTETLPGAKAMYIPVLGQEDIGIVIGIILEEGEELEEGEKSLLIAMINQVSFVIDNYILEEAKKQALMQAENEKFKANLLRAVSHDLRTPLTSISGSASLLLNNNFDEETKRKLTLDIYDDSIWLINLVENLLSVSRIDNGNINLNREAQLVEEIILEALQHVNRNACDYNIEIDLKDELLMVNADVRLIIQVIINIVDNAIKYTEKGSNIKISAFSKGDNVIIEIADNGVGISKEDKEHIFDMFFTSKKNISDSRRGLGLGLALCKSIINVHEGEIYVRDNKPRGTIIGFSLQRFEVNNNETSNFSY | failed
MAQQFIDIGANLTDDNYFGNYHGKHYHEEDIDVVLQRAERNGLSHIIITSGCLNDFKKAIEIINKYQNLTNIKLVTTIGVHPTRTNELKQEGYLDELLLLCEKNIDKVVAIGEIGLDYERLQFSDKETQLSGYRTLSILHQKYPYLPFFFHCRKSWSDLCQLNKELGYNGCKGVVHCFDGTEEEMNQILNEGWDIGVTGNSLQSIELLNVMKQIPIERLHIETDCPYCGIKKTSAGFKYLKEKDFGVKVEKYQRNKYVQRRNEPSNIIDIAIIMSSIKHISLFEFVNKVYSNSMNMYFPTMN | not failed
MLIGPYTHDAFMEEARKFHGYPAPGLIIGGYMVEMARRALPEGILFDAISETGQCLPDAVQMLTPCTIGNGWLRIRNFGLYALSLFDKHTGVGVRVHIDSQKLERFPEIKAWFLKLKPKREQDTERLQQEIREAAFDLLTLRPVTIRPDALGHGGKGGTIVACPLCGEYHPSAFGGICRSCQGESPYEVGPGLSFPGQPELRAVPVEEAVGKHALHDMTRIVPGESKGAEFVAGQELGAGDVCRLQMMGRNRVYVREETGDMQGWVHEDEAARAFGELMPGDGIEPEGPVREGKINFRATRDGVLVVDTRRLEQFNLVPDVMCATRHTHGVVLAGTRVAGTRAIPLYLSTLNLAKATTLLEGGPLFSVAPMRKAKVGVLVTGTEVFRGIIEDKFAPIITQKANQLGCDMAGTVIAPDDAPLITRGVHDLLAAGADLIVTTAGLSVDPDDMTRKGLLDAGLTEMLHGVPVLPGTMTLIGRIGGAQVIGVPACALFFKTTALDLLLPRLLAGLSVTRLDLARMGHGGLCMECRSCSFPKCPFGRG | failed
MSLEIIKTGLAAFGMSGQVFHAPFISTNPHFELYKIVERSKELSKERYPQASIVRSFKELTEDPEIDLIVVNTPDNTHYEYAGMALEAGKNVVVEKPFTSTTKQGEELIALAKKKGLMLSVYQNRRWDADFLTVRDILAKSLLGRLVEYESTFARYRNFIKPNTWKETGESGGGLTYNLGSHLIDQAIQLFGMPEAVFADLGILREGGKVDDYFIIHLLHPSLAPNVKITLKASYLMREAEPRFALHGTLGSYVKYGVDKQEAALLAGEIPERPNWGEESEQEWGLLHTEINGKEICRKYPGIAGNYGGFYQNIYEHLCLGQPLETHAQDILNVIRIIEAAYQSHRENKIVNLKEGHHHHHH | not failed
DVREFQPENFARFHPGGSLGRRLLSKVQDEMFSDNIPSVASDADFTSIIHKISSSHLGLTLVNLKDDSLAIITDGDLRRAMESKGRDAFDLVAKDIASINPASISPESNIQKAYEIMESKGITSLIVVESNSVVGIL | failed
MMGIMSDPITILDSSDSLSRLSSESVGRLVVHRKDDLDIFPVNFVLDYSAEQPRVYFRTAEGTKLFSVNLNSDVLFEVDRFDDAEGWSVVLKGNAYVVRDTEEARHADTLGLKPWLPTLKYNFVRIDVREVSGRAFVFGEEPERY | not failed
MNIVIAVGILVTLVTGIPVLLQLLKGHPRGLIICFLAEMWERFSYYGMRAILIFYLTQHFLFDPKAASGHYGSYTALVYLVPLIGGFLADKWLGTRKAVAFGAVLLVAGHLAMAIEGKPAVQTLTYQGATYEFQAEGRGQNREAKLVVDGKAYEVAATKVGDFEIKGLPANAPLPAVLPKADYKLDVAGRDPLYLNIFWFSLSLIILGVGFLKPNISTIVGQLYPQGDPRRDPGFTLYYYGINLGSFWASILCGLLGVNVGWWAGFGLAGVGMLAGFIVFVLGKPWLDGKAEPPEPKVLKEKVAGPINRELAIYGLSLVGLVGIFFLVQFNAIVGVALNIGILASLGYIGFFMFTKCAKEERERLALAVFLIFGAVVFWTLFEQAGSSLSLFAATNVQLDLVREPLRLFSGAVTLATPDQLAKAGIDAASTFWVDTSFNAPQTQALNAGWILIFAPVFAAVWTFLGARGKDPNPVIKFGLALIQVGAGFLLLQWGSTFADGAFKLPLIFLVLMYMLHTTGELCMSPVGLSQMTKLSPASVVSFMMAVWFLAVAIAQWVGGKIAGLAATETVGGQVLDPGAALAASLKVFNIIGLVAVAIGIGFLLLSPVLKKWSHGADNVGAPKKA | failed
MKTTIAAALQQYFLNDNTACYVLTGDNYPHRIPMRNDEERLNVYNESGEDGLRGYLGTPKEIDFDRINKELSEFKAGKDIIEIKHMGREDGDISYDETDFTGIKVLILEWTHGGSEYLKGVDIPVFLESSPEETKARRIKRGRDENAASPFICRVVELEQEKLDLQGKNARIVVGKDGKVYEQLEHHHHHH | failed
MTLLEAISNAVANQDKVDSQSDYPIPLSHDGIFANLKPKLENPNLGTLVNPISGWGISESDVEVIDLGKKFSSKLKRKLKDTNGFVKDEFVKMLKQFLEKIGEKVGISEAESEMVLGDQAGSEIQILVEKNGFLMGRDVSGLVLKGCISLEMWELVEILISNSLVDHSSYSYLVSNLVEKQRSDLLCVVIKEASDLGATELLSILKYFLCPSKEAISTMAKVREEWESQAMLAIEKVSNTELSKKSKVAEEASILLMVAHDGFSTSELCLHYLLASRNVDEVMFASAVSKLNGNEMGSFIRYLSKWMKKYEMFPQAGPCPKAASKLGLKLCNWVPELTDITKCLGLLIDENFSTLVLYSDLHEELKSIARVADGLASESKLSCFVANVVESLKLGAARN | failed
MARPRKPTNVLELTGAFKKDPQRRREDAEPVGELTAPPAHINGAVLHAWKEIAKYAPRDVLTNSDRLSLELAANLLAQFRNDPLDFPAAKLVRLEAMLGKFGMTPADRSKVGGGKKDAPKGNAFAEL | failed
MPEGHRATAIYFRHLLLIRVEIENIVNTLAICRHTFYISSLSLPCNLNKLIIMENLQSNLFYSLAGVAAVASLASCTNKQKTTEQKPLNIVYIMTDDHTAQMMSCYDTRYMETPNLDRIAADGVRFTQSFVANSLSGPSRACMITGKHSCANKFYDNTTCVFDSSQQTFPKLLQKVGYQTALVGKWHLESLPSGFNYWQIVPGQGDYYNPAFITQDNDTIQKHGYITNLITDDAIDWMENKRDPEKPFCLLIHHKAIHRNWMADTCNLALYEDKTFPLPDNFFDDYEGRPAAAAQEMSIVKDMDMIYDLKMLRPNEKSRLRSLYERFLGRMDEGQRAAWDKFYAPIIDDFYKQNLTGKELANWKFQRYMRDYMKTVKSLDDNVGRVLDYLKEKGLLDNTLVVYTSDQGFYMGEHGWFDKRFMYEESMRTPLIMRLPKGFDRRGDITEMVQNIDYAPTFLELAGAEIPADIHGVSLLPLLKGEHPKDWRKSLYYHFYEYPAEHMVKRHYGVRTERYKLIHFYNDINWWELYDMQADPSEMHNLYGEAEYEPVVKELKDELLKLQEQYNDPVRFSPERDKE | failed
MTTETFLVEIGTEELPPKALRSLAESFATHFTAELDNANITHGDVSWFAAPRRLAIKVANMAKSQADRIVEKRGPAIAQAFDAEGKPTKAAEGWARGNGITVDQAERLSTDKGEWLFYRAEVKGEAVNQLLAGMVSNALAKLPIPKLMRWGDKETHFVRPVHTVTLLLGDTLIDGEILGVQSARIIRGHRFMGEAEFTIDNADQYPEILYERGKVIADYENRKSIILHDARLAAEKLGGVADLSDSLVEEVTSLVEWPVVLTAKFEEKFLEVPAEALVYTMKGDQKYFPVYDKQGALLPHFIFVSNIESSDPQQIISGNEKVVRPRLADAEFFFKTDRKQRLEDNLPRLETVLFQKNLGSLRDKTDRIQALAGFIAEKMGADVNKATRAGLLSKCDLMTNMVFEFTDTQGVMGMHYARHDGEDEEVAVALKEQYQPRFAGDALPSNPVASAVAIAEKMDTLAGIFGIGQHPKGDKDPFALRRAALGVLRIIVEQDLPLDIEELTQEAARLYGDKLTNQNVVSDVVEFMLGRFRAWYQELGYSIDTIQAVLARRPTQPADFNARVKAVTYFRTLEEAAALAEANKRVSNILAKSADVKLNDKVLASVLKAPEEVQLAANLSVLQDKLAPLFAERKYQEALVELASLRDVVNNFFDKVMVMDKDEEIRVNRLTMLHELRELFLKVADISVLQ | failed
MSLRITRIRLYKTDLPYVDGSYGWGAGNAITVARASVVVIDTDAGLQGCGEFTPCGENYMIAHSEGVDAFARLAAPQLLGQDPRQVARMERLMDHLVQGHGYAKAPFDAAFWDILGQATGQPVWMLLGGKLCDGAPMYRVAPQRSEAETRAELARHRAAGYRQFQIKVGADWQSDIDRIRACLPLLEPGEKAMADANQGWRVDNAIRLARATRDLDYILEQPCRSYEECQQVRRVADQPMKLDECVTGLHMAQRIVADRGAEICCLKISNLGGLSKARRTRDFLIDNRMPVVAEDSWGGEIASAAVAHFAASTPEEFLINSTDLMNYNTRSTGLGGPTVHQGRLYASDTPGLGVTPDFNSLGAPVADWALPEGHHHHHH | not failed
YTVRLETEHAKEILSSDSPWASLEMFSFYGNYLKLVRTEYEGLRLSSGDTVFFLGSGPLPLTLIVFFRLYGVKSTGIEKDSFRANLSKKVLEKLGLSSVIKIVNGNHFSLSRKDLSLSPDTGVKALMIAAQAEPKKEIFEHLLEVMPIGGRISC | failed
MDWYVGTEWEDKNRGLAKKVIGLQFTEMDKPTIISTVEFSVNKKATNLGGRPSKYLVSDESATYPQKHSLEMGTSLTAVDCYLELLLQQFVPGETAACSITTKTGERIEFELKLEKIVKNTQVEKLSAAEIYEVALRLKESGVATFKTFPKFAFDYFVRAAKLLITYKPFDKLTKKTNGINGQAVEELFIQIQTNLAACLLQEKRYEHVIYHTQFVETEESPSEKSIYRRALAYYHLKEFAKAQATIERMPNYEEKREFSKLRDNIAVSWKDSKAHYKEVVQRMFS | failed
MSNSIFHKIIKSVKGLKLKTDPNLPGAKQKTPLNIKRFYLLIILVIYTATSACIYFDWSAIRKLLLHVGKYKHLNVDEYSDMTLSPQYKRINGLYPLTLAVHFTTSVFCGFLYDHIGPKFTAIIGQLFNIICWILLSIDIKGVDTTLWGFIFLGLGADTAFIPVLTVSNLYPDASTFILTVIGAAASLSYAVPATLNLVLKYFPNLSFSYVCYGYIILILIPCLLTAAFLLPLKPFKALDYYLEKNNETTKHTNAEGRSRSSNNIYTNEEDEFHFKNNASGMVDKDSTENNMNTDEHNYYNNGNISSNDLENNIQTNNRNNNKNNNYNNNNNNNNIIKKNTKISDQSTVKKDKSIDSNKNILHDEEDFHKKSIFLFFKILISYPSVCVITYFILFNISTVFYGMVTDTYFSYDRSIINVINILMPLSSIPCVVFGRFINKYGASVIILTINTLSVLMHLCALIKFRFAGLCSAFLYMCVTSVYTSQIYCFIQNSFPSIVFGKLLGFASLCGGIFSLLCEKLYDLIIIKDSSSIDPTNISLLIVIAFIIMFLPLSILYVRKYERSIENFGEKDKLPMN | failed
